Laboratory results from patent US20260137783A1 (CRISPR THERAPEUTICS, published 2026).

B1: Anti-CD117 VHH P29 (monovalent form) (VHH)
VHH: QVHLVESGGGLVQAGGSLGLSCAASGHTFSNYAMGWFRQAPGKEREFVAAISWSGGSTLYADSVKGRFTISRDNGENTVYLQMNSLKPEDTAVYYCALDSTGVYGTGYVSSRKGRYEYWGQGTLVTVSS
notes: Secreted from Expi293 cells
B2: Anti-CD117 VHH P31 (monovalent form) (VHH)
VHH: EVQLVESGGGLVRAGGSLRLSCAASGRTFTYDARAWFRQAPGKEREFVAAISWSGGSTYYPNSMKGRFTISRDNAKNTVYLQMNSLKPEDTAVYYCAADESFPAYYSDYALYRYWGQGTLVTVSS
notes: Secreted from Expi293 cells
B3: Anti-CD117 VHH P12 (monovalent form) (VHH)
VHH: QVQLVESGGGLVQAGGSLRLSCTASGDTFSSYSMGWFRQGPGKEREFVGGIRWSGGTTYYADSVKGRFTISRDNAKNTVYLQMNSLKREDTAVYYCAAVRRRWLIWQEEEYDYWGQGTLVTVSS
notes: Secreted from Expi293 cells
B4: Anti-CD117 VHH P35 (monovalent form) (VHH)
VHH: QVQLVESGGGLVQAGGSLRLSCAASGGTFSIYPVGWFRQAPGKQREFVAAIGWSASGTYYGDSVEGRFTVSRDNARSTVYLRMSSLKPDDTAVYYCAAASGSNWRLGAIDEYDSWGQGTQVTVSS
notes: Secreted from Expi293 cells
B5: Anti-CD117 VHH P27 (monovalent form) (VHH)
VHH: EVQLVESGGGLVRAGGSLRLSCAASGRTTFSTYWLGWFRQAPGKNREFVAAISWSAGMAYYQDSKGRFTISRDNTKNTAYLQMNSLQPEDTAVYYCAAGRFHPIRVDTALYWAQGTQVTVSS
notes: Secreted from Expi293 cells
B6: Anti-CD117 VHH P38 (monovalent form) (VHH)
VHH: EVQLVESGGGLVQAGGSLRLSCAASGRTSGSYVMGWFRQAPGKEREFVAAISWSAGMTYYADSVKGRFTISRDNAKNTVYLQMNSLKPEDTAVYYCAADQRGVPAYYSDYALYDYWGQGTQVTVSS
B7: Anti-CD117 VHH P10 (monovalent form) (VHH)
VHH: QVQLVESGGGLVQAGGSLRLSCVASGRTFSSYAMGWFRQGPGKEREFAAAILSNGLTTYYADSVKGRFTISRDNAKDTVYLQMNSLKPEDTANYYCAAAFTPEFRDGGIWDDASVDYWGQGTQVTVSS
notes: Secreted from Expi293 cells

Target: T1, Cell surface CD117 on CD117+ cells (SKMEL / SKMEL-3 cells, CD34+ cells / HSPCs, Kasumi-1 cells) (UniProt P10721 26-976, limits assumed)
T1 construct: whole, on cells; also called cKIT; C-kit
T1 sequence (P10721 26-976 limits assumed): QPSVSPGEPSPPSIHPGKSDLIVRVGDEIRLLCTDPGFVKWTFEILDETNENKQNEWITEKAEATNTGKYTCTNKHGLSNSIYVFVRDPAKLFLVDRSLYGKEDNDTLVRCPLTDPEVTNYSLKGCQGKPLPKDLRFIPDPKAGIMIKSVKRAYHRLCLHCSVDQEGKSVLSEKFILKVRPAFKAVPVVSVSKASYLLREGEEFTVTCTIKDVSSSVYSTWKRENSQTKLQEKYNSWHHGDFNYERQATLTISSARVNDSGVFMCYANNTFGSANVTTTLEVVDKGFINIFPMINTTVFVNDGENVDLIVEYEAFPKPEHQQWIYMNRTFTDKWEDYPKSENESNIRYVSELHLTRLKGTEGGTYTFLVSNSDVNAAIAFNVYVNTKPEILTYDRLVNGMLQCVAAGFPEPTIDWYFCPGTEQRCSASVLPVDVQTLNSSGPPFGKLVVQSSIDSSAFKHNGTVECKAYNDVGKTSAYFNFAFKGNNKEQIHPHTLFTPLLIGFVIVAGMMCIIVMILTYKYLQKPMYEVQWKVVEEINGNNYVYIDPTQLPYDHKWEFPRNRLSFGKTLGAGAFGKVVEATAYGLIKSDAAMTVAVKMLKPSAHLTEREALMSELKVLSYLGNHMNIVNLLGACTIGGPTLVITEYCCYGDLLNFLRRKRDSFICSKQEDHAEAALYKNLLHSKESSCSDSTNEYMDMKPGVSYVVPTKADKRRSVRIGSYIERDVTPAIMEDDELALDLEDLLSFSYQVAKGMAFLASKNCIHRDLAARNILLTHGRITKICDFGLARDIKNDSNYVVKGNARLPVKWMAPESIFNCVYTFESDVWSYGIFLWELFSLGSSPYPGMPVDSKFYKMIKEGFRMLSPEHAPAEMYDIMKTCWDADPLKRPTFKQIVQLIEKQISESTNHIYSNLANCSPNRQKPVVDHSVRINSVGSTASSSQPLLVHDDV
Test: flow cytometry on SKMEL cells and CD34 cells (both CD117+)

Binding result, binds:
B1
B2
B3
B4
B5
B6
B7
